This is an account of results in patent publication US20220324953A1 (JIANGSU HENGRUI MEDICINE, published 2022).

What is called EC50 is the concentration giving half of the maximal effect. Lower therefore signals a more potent agent.

Assay [1] concerns the target T1, human CTGF protein (R&D, Cat No. 9190-CC) (human, UniProt P29279 27-349).
T1 construct: Bought protein; also called CTGF recombinant protein; CTGF (R&D)
T1 sequence: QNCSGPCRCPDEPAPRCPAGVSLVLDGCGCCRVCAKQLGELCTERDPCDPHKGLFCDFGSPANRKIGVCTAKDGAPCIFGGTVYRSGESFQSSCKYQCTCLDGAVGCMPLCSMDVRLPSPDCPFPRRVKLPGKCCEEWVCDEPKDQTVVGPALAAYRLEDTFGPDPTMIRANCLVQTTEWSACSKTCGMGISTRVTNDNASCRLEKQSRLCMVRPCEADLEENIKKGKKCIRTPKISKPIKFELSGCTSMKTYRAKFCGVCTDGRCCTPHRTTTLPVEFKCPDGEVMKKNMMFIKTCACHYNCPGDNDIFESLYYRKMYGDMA
The assay can be described thus: ELISA, plate coated with CTGF (R&D 9190-CC). The protocol: The binding activity of anti-human CTGF antibody to human CTGF protein was tested by ELISA assay and Biacore. A 96-well microtiter plate was directly coated with the CTGF recombinant protein. The signal strength upon the addition of the antibody was used to determine the binding activity of the antibody to CTGF. The specific experimental procedures were as follows:
The CTGF protein (R&D, Cat No. 9190-CC) was diluted with PBS, pH 7.4 (Shanghai Yuanpei, Cat No. B320) buffer to a concentration of 0.2 μg/ml, 50 μl/well of which was added into the 96-well microtiter plate (Corning, Cat No. CLS3590-100EA), and incubated in an incubator at 37° C. for 2 hours or at 4° C. overnight (16-18 hours). The liquid was removed, 250 μl/ well blocking solution (5% skim milk (BD skim milk, Cat No.232100) diluted in PBS) was added, and incubated in an incubator at 37° C. for 3 hours or at 4° C. overnight (16-18 hours) for blocking. After the blocking was finished, the blocking solution was removed, the plate was washed for 5 times with PBST buffer (PBS containing 0.1% Tween-20, pH 7.4), 50 μl/well of various concentrations of each of the test antibodies (antibodies purified from hybridoma or humanized antibodies) diluted with sample dilution solution were added, and incubated in an incubator at 37° C. for 1 hours. After the incubation was finished, the plate was washed for 3 times with PBST, 50 μl/well of HRP-labeled goat anti-mouse secondary antibody (Jackson Immuno Research, Cat No. 115-035-003) or goat anti-human secondary antibody (Jackson Immuno Research, Cat No. 109-035-003) diluted with sample dilution solution was added, and incubated at 37° C. for 1 hour. The plate was washed for 3 times with PBST, 50 μl/well of TMB chromogenic substrate (KPL, Cat No. 52-00-03) was added, incubated at room temperature for 5-10min, and 50 μl/well of 1 M H₂SO₄ was added to stop the reaction. The absorbance value was read by a microplate reader (Molecular Devices, VERSA max) at a wavelength of 450 nm, and the data was analyzed with GraphPad Prism 5. The binding of CTGF antibody to human CTGF protein was calculated as EC50 value.
(ELISA stands for enzyme-linked immunosorbent assay.)

Assay [2] has as its target T2, human CTGF (antigen of the Biacore assays) (human, UniProt P29279 27-349).
T2 construct: also called antigen human CTGF; human CTGF protein
T2 sequence (looked up): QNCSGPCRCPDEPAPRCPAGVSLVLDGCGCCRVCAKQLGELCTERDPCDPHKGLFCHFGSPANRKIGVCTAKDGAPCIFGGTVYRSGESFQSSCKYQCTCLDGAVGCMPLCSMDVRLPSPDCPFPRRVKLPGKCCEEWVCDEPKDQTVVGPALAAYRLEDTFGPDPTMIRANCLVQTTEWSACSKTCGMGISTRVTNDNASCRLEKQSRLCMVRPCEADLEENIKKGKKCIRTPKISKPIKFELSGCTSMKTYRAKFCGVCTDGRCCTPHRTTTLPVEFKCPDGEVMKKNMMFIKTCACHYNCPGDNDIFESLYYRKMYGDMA
Kind of assay: Biacore, CTGF immobilised, antibody 150 µg/ml then 50 nM TGF-β1 (competitor TGF-β1). The protocol:
First, the antigen human CTGF was immobilized onto a CMS biosensor chip (Cat. # BR-1005-30, GE) by amino coupling, with an immobilization level of 1500 RU, and then a high concentration of CTGF antibody (150 μg/ml) was allowed to flow through the surface of the chip for 150 s; 50 nM TGF-β1 protein was injected for 120 s, and the reaction signals were detected in real time with the Biacore T200 instrument to generate a binding and dissociation curve. After the dissociation was completed in each of the experimental cycles, the biosensor chip was washed and regenerated with regeneration buffer.
The resulting experimental data were statistically analyzed with GE Biacore T200 Evaluation version 3.0 software.
In general terms: SPR reads the build-up and loss of mass on a sensor chip optically.

B1: Hu164-67wl (antibody, human IgG1, lambda)
heavy: not shown
light: ETVVTQEPSLTVSPGGTVTLTCRSSIGAVTTSNYANWVQQKPGQAFRGLIGGTSNRAPWTPARFSGSLLGGKAALTLSGVQPEDEAEYYCALWYSTHYVFGGGTKLTVLGQPKANPTVTLFPPSSEELQANKATLVCLISDFYPGAVTVAWKADGSPVKAGVETTKPSKQSNNKYAASSYLSLTPEQWKSHRSYSCQVTHEGSTVEKTVAPTEC
Consider B1, for which the EC50 in assay [1] came to 0.044 nM. For the same molecule, the “Function-blocking percentage (%)” value in assay [2] was found to be 55.5%.

B2: Hu147-12wk (antibody, human IgG1, kappa, V domains shown)
VH: EVQLVESGGGLVQPGGSLRLSCAASGFTFSTYAMNWVRQAPGKGLEWVGRIRTKSNNYATYYADSVKDRFTISRDDSKNSLYLQMNSLKTEDTAVYYCVETGFAYWDQGTLVTVSS
VL: EIVLTQSPATLSLSPGERATLSCSASSSVSYMHWFQQKPGQSPKLLIYSTSNLASGIPARFSGSGSGTDYTLTISSLEPEDFAVYYCQQRSSYPLTFGQGTKLEIKR
In turn, B2 had an EC50 in assay [1] of 0.046 nM. Further, the “Function-blocking percentage (%)” value in assay [2] is 51.6%.

B3: Hu147-14wk (antibody, human IgG1, kappa, V domains shown)
VH: EVQLVESGGGLVQPGGSLRLSCAASGFTFSTYAMNWVRQAPGKGLEWVGRIRTKSNNYATYYADSVKDRFTISRDDSKNSLYLQMNSLKTEDTAVYYCVETGFAYWDQGTLVTVSS
VL: DIQMTQSPSSLSASVGDRVTITCSASSSVSYMHWFQQKPGKSPKLLIYSTSNLASGVPSRFSGSGSGTDYTLTISSLQPEDFATYYCQQRSSYPLTFGQGTKLEIKR
In turn, B3 displayed an EC50 in assay [1] of 0.073 nM. The “Function-blocking percentage (%)” value in assay [2] came to 50.9%.

B4: Hu147-24wk (antibody, human IgG1, kappa, V domains shown)
VH: EVQLVESGGGLVQPGGSLRLSCAASGFTFNTYAMNWVRQAPGKGLEWVARIRTKSNNYATYYADSVKDRFTISRDDSKNSLYLQMNSLKTEDTAVYYCVETGFAYWDQGTLVTVSS
VL: DIQMTQSPSSLSASVGDRVTITCSASSSVSYMHWFQQKPGKSPKLLIYSTSNLASGVPSRFSGSGSGTDYTLTISSLQPEDFATYYCQQRSSYPLTFGQGTKLEIKR
As to B4, a half-maximal response in assay [1] (EC50) required 0.048 nM. Further, the “Function-blocking percentage (%)” value in assay [2] was determined as 52.8%.

B5: Hu147-15wk (antibody, human IgG1, kappa, V domains shown)
VH: EVQLVESGGGLVQPGGSLRLSCAASGFTFSTYAMNWVRQAPGKGLEWVGRIRTKSNNYATYYADSVKDRFTISRDDSKNSLYLQMNSLKTEDTAVYYCVETGFAYWDQGTLVTVSS
VL: DIQLTQSPSSLSASVGDRVTITCSASSSVSYMHWFQQKPGKSPKLWIYSTSNLASGVPSRFSGSGSGTDYTLTISSLQPEDFATYYCQQRSSYPLTFGQGTKLEIKR
Take B5: the response in assay [1] was half-maximal at 0.034 nM (EC50). For the same molecule, the “Function-blocking percentage (%)” value in assay [2] amounted to 52.3%.

B6: Hu147-34wk (antibody, human IgG1, kappa, V domains shown)
VH: EVQLVESGGGLVQPGGSLRLSCAASGFSFNTYAMNWVRQAPGKGLEWVARIRTKSNNYATYYADSVKDRFTISRDDSESSLYLQMNSLKTEDTAVYYCVETGFAYWDQGTLVTVSS
VL: DIQMTQSPSSLSASVGDRVTITCSASSSVSYMHWFQQKPGKSPKLLIYSTSNLASGVPSRFSGSGSGTDYTLTISSLQPEDFATYYCQQRSSYPLTFGQGTKLEIKR
Regarding B6, the EC50 in assay [1] came out at 0.134 nM. Further, the “Function-blocking percentage (%)” value in assay [2] was 56.2%.
